Where a chain is given by its changes, count along the chain named.
How the values were obtained:
Assay in all cases: EMSA
Details in all cases: EMSA: 20 mM Tris-HCl pH 7.5, 25 mM NaCl, 2 mM beta-mercaptoethanol, 10% glycerol; 50 nM nucleosome or DNA; 15 min room temperature; 6% TBE-acrylamide gel, 0.2X …
[1] = target: T1, Hop1 CBR loop 1+2+3 mutant N362A;H365A;R402A;K403A;K404A;K405A;K452A;R458A (Saccharomyces cerevisiae) (UniProt P20050)
T1 sequence: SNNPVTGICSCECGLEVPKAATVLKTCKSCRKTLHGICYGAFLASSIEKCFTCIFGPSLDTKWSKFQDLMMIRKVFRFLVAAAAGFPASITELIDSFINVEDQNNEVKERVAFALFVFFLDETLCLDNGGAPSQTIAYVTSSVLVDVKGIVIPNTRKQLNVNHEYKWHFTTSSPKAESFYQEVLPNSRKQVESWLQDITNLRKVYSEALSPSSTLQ

[2] = target: T2, Hop1 CBR loop 1 mutant N362A;H365A (Saccharomyces cerevisiae) (UniProt P20050)
T2 sequence: T1 sequence with A81R, A82K, A83K, A84K, A131K, A137R

[3] = target: T3, Hop1 CBR loop 1+3 mutant N362A;H365A;K452A;R458A (Saccharomyces cerevisiae) (UniProt P20050)
T3 sequence: T1 sequence with A81R, A82K, A83K, A84K

[4] = target: T4, Hop1 CBR loop2+3 mutant R402A;K403A;K404A;K405A;K452A;R458A (Saccharomyces cerevisiae) (UniProt P20050)
T4 sequence: T1 sequence with A41N, A44H

[5] = target: T5, Hop1 CBR loop 3 mutant K452A;R458A (Saccharomyces cerevisiae) (UniProt P20050)
T5 sequence: T1 sequence with A41N, A44H, A81R, A82K, A83K, A84K

[6] = target: T6, Hop1 CBR loop 1+2 mutant N362A;H365A;R402A;K403A;K404A;K405A (Saccharomyces cerevisiae) (UniProt P20050)
T6 sequence: T1 sequence with A131K, A137R

[7] = target: T7, Hop1 CBR loop2 mutant R402A;K403A;K404A;K405A (Saccharomyces cerevisiae) (UniProt P20050)
T7 sequence: T1 sequence with A41N, A44H, A131K, A137R

“TGGAGAATCCCGGTGCCGAGGCCGCTCAATTGGTCGTAGACAGCTCTAGCACCGCTTAAACGCACGTACGCGCTGTCCCCCGCGTTTTAACCGCCAAGGGGATTACTCCCTAGTCTCCAGGCACGTGTCAGATATATACATCCTGT (double strand) [Widom 601 mononucleosome (human histones)]” gave a Kd [1] of over 50 µM, a Kd [2] of 2 µM and a Kd [3] of 13 µM. It also gave a Kd [4] of over 50 µM, a Kd [5] of 50 µM and a Kd [6] of over 50 µM. It also gave a Kd [7] of over 50 µM.

Source: paper PMC10907721
